Test results published in article PMC9304055, “Biochemical analysis of novel NAA10 variants suggests distinct pathogenic mechanisms involving impaired protein N-terminal acetylation” (Human Genetics, 2022).

Molecular target: T1, NAA10 A6P-V5 (human, UniProt P41227-1 1-235, A6P)
T1 construct: NAA10, human, patient variant c.16G>C p.(A6P), made by site-directed mutagenesis of pcDNA3.1/NAA10-WT-V5; Same construct as m1 with the variant found in a patient; also called NAA10 p.(A6P); c.16G>C p.(Ala6Pro); source: HeLa, transfected, in lysate
T1 sequence (looked up): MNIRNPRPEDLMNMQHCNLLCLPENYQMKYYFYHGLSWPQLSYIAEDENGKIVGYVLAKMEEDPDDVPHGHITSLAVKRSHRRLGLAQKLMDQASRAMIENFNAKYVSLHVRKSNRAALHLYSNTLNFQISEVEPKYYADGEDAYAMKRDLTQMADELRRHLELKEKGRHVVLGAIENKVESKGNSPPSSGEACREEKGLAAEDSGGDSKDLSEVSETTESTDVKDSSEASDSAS
Assay: co-IP; anti-V5 immunoprecipitation (Dynabeads Protein G) of NAA10-V5 from lysates of transfected HeLa cells; lysis buffer 50 mM Tris-HCl pH 8.0, 150 mM NaCl, 5 mM EDTA, 0.5% NP-40, 4 °C; co-precipitated NAA15 detected by Western blot
Details: partners not purified

B1: NAA15 (natural protein, human (endogenous in HeLa), UniProt Q9BXJ9 1-866, looked up)
chain: MPAVSLPPKENALFKRILRCYEHKQYRNGLKFCKQILSNPKFAEHGETLAMKGLTLNCLGKKEEAYELVRRGLRNDLKSHVCWHVYGLLQRSDKKYDEAIKCYRNALKWDKDNLQILRDLSLLQIQMRDLEGYRETRYQLLQLRPAQRASWIGYAIAYHLLEDYEMAAKILEEFRKTQQTSPDKVDYEYSELLLYQNQVLREAGLYREALEHLCTYEKQICDKLAVEETKGELLLQLCRLEDAADVYRGLQERNPENWAYYKGLEKALKPANMLERLKIYEEAWTKYPRGLVPRRLPLNFLSGEKFKECLDKFLRMNFSKGCPPVFNTLRSLYKDKEKVAIIEELVVGYETSLKSCRLFNPNDDGKEEPPTTLLWVQYYLAQHYDKIGQPSIALEYINTAIESTPTLIELFLVKAKIYKHAGNIKEAARWMDEAQALDTADRFINSKCAKYMLKANLIKEAEEMCSKFTREGTSAVENLNEMQCMWFQTECAQAYKAMNKFGEALKKCHEIERHFIEITDDQFDFHTYCMRKITLRSYVDLLKLEDVLRQHPFYFKAARIAIEIYLKLHDNPLTDENKEHEADTANMSDKELKKLRNKQRRAQKKAQIEEEKKNAEKEKQQRNQKKKKDDDDEEIGGPKEELIPEKLAKVETPLEEAIKFLTPLKNLVKNKIETHLFAFEIYFRKEKFLLMLQSVKRAFAIDSSHPWLHECMIRLFNTAVCESKDLSDTVRTVLKQEMNRLFGATNPKNFNETFLKRNSDSLPHRLSAAKMVYYLDPSSQKRAIELATTLDESLTNRNLQTCMEVLEALYDGSLGDCKEAAEIYRANCHKLFPYALAFMPPGYEEDMKITVNGDSSAEAEELANEI
notes: NAA15, large auxiliary subunit of the NatA complex, endogenous in HeLa cells, detected with NAA15 rabbit polyclonal antibody (previously called anti-NATH); also called auxiliary subunit of NatA; NATH; source: endogenous, HeLa lysate
fold less NAA15 co-immunoprecipitated than with NAA10 WT-V5: 5 fold
